Measured values taken from patent US20200354406A1 (Bicycle, published 2020).
Starred links: 1 amine or outer side, 2 acyl side, 3 side chain; linkers in the order of their positions; H or OH if unused. Positions of bridges follow the written chain, without caps; N, C: chain ends. Non-standard residues stand in square brackets, D forms with d. Chains are numbered I, II in the order given. No end group written: not given here. *: point of attachment. TATA = O=C(CC[*:1])N1CN(C(=O)CC[*:2])CN(C(=O)CC[*:3])C1; 1Nal = N[C@@H](Cc1cccc2ccccc12)C(=O)O; Hyp = O=C(O)[C@@H]1C[C@@H](O)CN1; hArg = N=C(N)NCCCC[C@H](N)C(=O)O; Pent4ynoyl = C#CCCC(=O)*

T1: OX40 on OX40 Jurkat reporter cells (Promega CS197704) (UniProt P43489 29-277, limits assumed)
T1 sequence (looked up): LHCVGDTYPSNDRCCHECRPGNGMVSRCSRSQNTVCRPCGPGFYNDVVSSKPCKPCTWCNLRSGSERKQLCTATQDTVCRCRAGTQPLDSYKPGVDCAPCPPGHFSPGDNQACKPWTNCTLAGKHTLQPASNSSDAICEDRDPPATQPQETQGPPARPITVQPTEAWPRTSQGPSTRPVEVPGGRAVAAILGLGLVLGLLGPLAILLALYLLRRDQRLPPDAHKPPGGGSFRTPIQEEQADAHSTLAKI

B1: BCY12141, Nectin-4:OX40 heterotandem of BCY11607 [A-(SEQ ID NO: 6)-A-K(Pya)] and BCY8116-PEG12-N3 (peptide)
peptide 1: ACLYSPCWHPLNDCAK(Pent4ynoyl)
peptide 2: CP[1Nal][dD]CM[hArg]DWSTP[Hyp]WC
modifications: linker I:2-I:7-I:14, II:1-II:5-II:15 via TATA; not fully specified (bridges); also: PEG12 linker attached to chain 2, place not given here
B2: BCY12019, synthetic tetramer of four BCY11607 [A-(SEQ ID NO: 6)-A-K(Pya)] linked via C-terminal Lys(PYA) to spacer S1A (n = 23) and central hinge moiety A (TET) (peptide)
peptide: ACLYSPCWHPLNDCAK
modifications: linker 2-7-14 via TATA; not fully specified (residue 16); also: tetramer: four BCY11607 monomers clicked via S1A to central hinge A (TET)
B3: BCY12967, Nectin-4:OX40 heterotandem of a trifunctional PEG3 derivative of BCY8116 and BCY11607 (peptide)
peptide 1: ACLYSPCWHPLNDCAK(Pent4ynoyl)
peptide 2: CP[1Nal][dD]CM[hArg]DWSTP[Hyp]WC
modifications: linker I:2-I:7-I:14, II:1-II:5-II:15 via TATA; not fully specified (bridges); also: two copies of chain 1 (BCY11607) clicked via Lys(Pya) to the trifunctional PEG3 linker
B4: BCY12721, Nectin-4:OX40 heterotandem (taken as BCY12708 [Ac-A-(SEQ ID NO: 6)-A-K(Pya)] with a PEG5 derivative of BCY8116) (peptide)
peptide 1: Ac-ACLYSPCWHPLNDCAK(Pent4ynoyl)
peptide 2: CP[1Nal][dD]CM[hArg]DWSTP[Hyp]WC
modifications: linker I:2-I:7-I:14, II:1-II:5-II:15 via TATA; not fully specified; also: heterotandem: chain 1 Lys(Pya) linked to PEG5 derivative of chain 2

Legend:
Test in all cases: cell-based or functional assay
[1] = biological target: T1, OX40 on OX40 Jurkat reporter cells …
[2] = biological target: T1, OX40 on OX40 Jurkat reporter cells …; remark: listed apart in the source
[3] = biological target: T1, OX40 on OX40 Jurkat reporter cells …; remark: listed apart in the source

| Binder | EC50 (nM), Promega OX40 cell-activity assay in co-culture with Nectin-4 positive 4T1-D02 tumor cells [1] [nM] | agonism in the Promega OX40 cell-activity assay relative to BCY10549 bound to streptavidin [2] [fold] | EC50 (nM), Promega OX40 cell-activity assay (NF-κB luciferase in OX40 Jurkat cells) [3] [nM] |
| --- | --- | --- | --- |
| B1 | 0.59 | – | – |
| B2 | – | ~10 | 2.6 |
| B3 | 0.83 | – | – |
| B4 | 0.94 | – | – |
